The test system of this test is occlusive blood clot in the carotid artery. Put plainly: carotid artery occlusion model, clot lysis and vascular reperfusion. In kind it is in vivo, mice. The conditions noted are these: regimens A-H of FIGS. 8 and 9, blood flow monitored 60 minutes. As to the method: Mice were anaesthetised and minor surgery performed to expose to the carotid artery and jugular vein. A Doppler flow probe was placed around the carotid artery to monitor blood flow through this blood vessel, and a catheter placed in the jugular vein to administer drugs. A blood clot was formed in the carotid artery of the mouse through the delivery of a small electric current (4 mA for 1.25 min^g), resulting in complete blockage of blood flow through the vessel (blood flow=0 mls/min), as measured by the flow probe. After vessel blockade was established, various combinations of t-PA, urokinase, heparin, hirudin, HA1077 and Y27632 were administered, using concentrations and regimens indicated (A-H in FIGS. 8 and 9) and examined for their efficacy to dissolve blood clots and restore blood flow. Blood flow was monitored in mice receiving each drug combination for a further 60 minutes, and blood flow measurements recorded using computer software.

B1: t-PA: thrombolytic agent (protein, UniProt P00750 36-562, looked up)
Tissue-type plasminogen …: SYQVICRDEKTQMIYQQHQSWLRPVLRSNRVEYCWCNSGRAQCHSVPVKSCSEPRCFNGGTCQQALYFSDFVCQCPEGFAGKCCEIDTRATCYEDQGISYRGTWSTAESGAECTNWNSSALAQKPYSGRRPDAIRLGLGNHNYCRNPDRDSKPWCYVFKAGKYSSEFCSTPACSEGNSDCYFGNGSAYRGTHSLTESGASCLPWNSMILIGKVYTAQNPSAQALGLGKHNYCRNPDGDAKPWCHVLKNRRLTWEYCDVPSCSTCGLRQYSQPQFRIKGGLFADIASHPWQAAIFAKHRRSPGERFLCGGILISSCWILSAAHCFQERFPPHHLTVILGRTYRVVPGEEEQKFEVEKYIVHKEFDDDTYDNDIALLQLKSDSSRCAQESSVVRTVCLPPADLQLPDWTECELSGYGKHEALSPFYSERLKEAHVRLYPSSRCTSQHLLNRTVTDNMLCAGDTRSGGPQANLHDACQGDSGGPLVCLNDGRMTLVGIISWGLGCGQKDVPGVYTKVTNYLDWIRDNMRP
On to B1, for which the “clot lysis and re-establishment of blood flow (in words)” value was “relatively moderate in its ability to lyse occlusive blood clots”.

These data come from patent US20110190270A1, “METHODS OF TREATING THROMBOEMBOLIC DISORDERS” (MONASH UNIVERSITY, priority 2008, published 2011).
